The target of this experiment is T1, Recombinant equine MHC-I 3.1 (Eqca-1*00101) with the peptide SDYVKVSNI linked to β2-microglobulin (equine (horse) | horse | ).
T1 chain 1: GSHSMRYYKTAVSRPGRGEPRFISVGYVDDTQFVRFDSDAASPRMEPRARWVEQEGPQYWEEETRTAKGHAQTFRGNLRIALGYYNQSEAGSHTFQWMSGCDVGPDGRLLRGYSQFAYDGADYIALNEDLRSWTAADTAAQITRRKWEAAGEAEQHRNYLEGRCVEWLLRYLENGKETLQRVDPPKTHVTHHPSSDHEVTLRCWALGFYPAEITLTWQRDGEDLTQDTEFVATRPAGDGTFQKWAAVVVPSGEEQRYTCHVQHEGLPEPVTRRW
T1 chain 2: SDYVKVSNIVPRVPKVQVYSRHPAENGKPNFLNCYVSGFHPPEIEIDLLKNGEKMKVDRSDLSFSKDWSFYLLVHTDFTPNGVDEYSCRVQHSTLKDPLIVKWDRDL
Nature of the experiment: SPR; recombinant equine MHC-I 3.1 amine-coupled to a polycarboxylate hydrogel chip HC200M; gDs injected in serial dilutions from 0 to about 10 uM, 15 min; 25°C; Biacore J; equilibrium response fitted to a 1:1 model; apparent constants. The following applies: both partners purified.

B1: C-terminally truncated EHV-4 glycoprotein D, gD4_(36-280) (domain or fragment)
chain: VVRGNQNQRPEFPPPRYNFTIVTTYNETSLPSPFINDQVKIVDVRTVAATRPCEMIALIAKTNVDSIIKELDAAHKTYSARLTWFKITPTCATPIHDVVYMKCNPKLLFGMCDERSNILWLNSLITTAAETDDELGLVLASPAHSYSGLYRRVIQIDGRRIYTDFSVTIPSSHCPLSFEQNFGNPDRCKTPEQYSRGEVYTSRFLSEFNYRQGVHLAWVKHWFVQDGGNLPVQFYEAQAFARPVP
modifications: Insect-cell N-glycosylation; disulfides C87/C209, C126/C223, C138/C147. Entity position = paper number -30. / Peptide is covalently linked to beta2m. The linker sequence is not printed (supplement) …
On to B1, for which the Kd came to 6.7 ± 0.75 µM.

B2: Recombinant soluble glycoprotein D of equine herpesvirus type 1, gD1_(32-349) (domain or fragment)
chain: EKAKRAVRGRQDRPKEFPPPRYNYTILTRYNATALASPFINDQVKNVDLRIVTATRPCEMIALIAKTNIDSILKELAAAQKTYSARLTWFKIMPTCATPIHDVSYMKCNPKLSFAMCDERSDILWQASLITMAAETDDELGLVLAAPAHSASGLYRRVIEIDGRRIYTDFSVTIPSERCPIAFEQNFGNPDRCKTPEQYSRGEVFTRRFLGEFNFPQGEHMTWLKFWFVYDGGNLPVQFYEAQAFARPVPPDNHPGFDSVESEITQNKTDPKPGQADPKPNQPFKWPSIKHLAPRLDEVDEVIEPVTKPPKTSKSNSTF
modifications: N-linked glycosylation (GlcNAc) visible at N53 and N61
Turning to B2, the Kd is 7 µM.

B3: Recombinant soluble glycoprotein D of equine herpesvirus type 4, gD4_(32-349) (domain or fragment)
chain: ENYRRVVRGNQNQRPEFPPPRYNFTIVTTYNETSLPSPFINDQVKIVDVRTVAATRPCEMIALIAKTNVDSIIKELDAAHKTYSARLTWFKITPTCATPIHDVVYMKCNPKLLFGMCDERSNILWLNSLITTAAETDDELGLVLASPAHSYSGLYRRVIQIDGRRIYTDFSVTIPSSHCPLSFEQNFGNPDRCKTPEQYSRGEVYTSRFLSEFNYRQGVHLAWVKHWFVQDGGNLPVQFYEAQAFARPVPPDNHPGFDSVESEITQNKTNPKQEQASPKPNPPFKWPSIKQLAPRIDEVDNAKEITTKKPPASNSNSTF
modifications: Insect-cell N-glycosylation; disulfides C87/C209, C126/C223, C138/C147. Entity position = paper number -30. The deposited construct starts at E31 although the text prints 32-349; TEV-His6 removed. / …
On to B3, for which the Kd turned out to be 5.8 ± 0.76 µM.

For the origin of these results see PMC10213783, “Crystal structures of glycoprotein D of equine alphaherpesviruses reveal potential binding sites to the entry receptor MHC-I” (Frontiers in Microbiology, 2023).
